In patent publication US12384831 (SHINSHU UNIVERSITY, dated 2025):

Target: recombinant human LOX-1 (61-273aa) (human, UniProt P78380 61-273)
Experiment: sandwich ELISA, LOX-1 immobilized, detection by anti-ApoA I antibody
Protocol: The recombinant human LOX-1 (61-273aa) or protein Dectin-1 belonging to the same family with LOX-1 for the contrast reference was immobilized on the ELISA plate at 4° C. overnight. After washing with PBS, it was blocked by HEPES buffer including 3% BSA (10 mM HEPES, 150 mM NaCl, pH7.4). After washing PBS three times, oxidized HDL, HDL, oxidized LDL and LDL were respectively added thereto, and they were incubated. After washing with PBS, chicken anti-ApoA I monoclonal antibody (chicken monoclonal […]) or HRP-labeled anti-ApoA I polyclonal antibody (sheep polyclonal […]) was added thereto. When chicken anti-ApoA I monoclonal antibody was used, chicken anti-ApoA I monoclonal antibody was added thereto and reacted for 1 hour at room temperature and then it was washed with PBS and secondary antibody: HRP-labeled Donkey anti-chicken IgY was added and incubated for 1 hour at room temperature.
After the antibody response, it was washed with PBS for 5 times. And then, TMB solution was added onto the plate and made it react them at room temperature. After stopping the reaction by 2M sulfuric acid, the absorbency at 450 nm was determined by using SpectraMax 340PC384 (Molecular Devices) to detect the oxidized HDL bound. […]

binding result: binds
B1: fusion protein of Fv-type anti-LOX-1 antibody (#10-1) and human ApoA I (31-267aa) (other)
chain: EVKLLESGGGLVQPGGSLKLSCAVSGFDFSRYWMSWVRQAPGKGLEWIGEINPDSSTINFTPSLKDKFIVSRDNAKNTLYLQMSKVRSEDTALYYCARNDVLLGAMDYWGQGTSVTVSSGGGGSGGGGSGGGGSDVLMTQTPLSLPVSLGDQASISCRSSQTIVHSNGKTYLEWYLQKPGQSPKLLIYKVSNRFSGVPDRFSGSGSGTDFTLKISRVEAEDLGVYYCFQGSHVPLTFGAGTKLELKGGGGSGGGGSGGGGSPWDRVKDLATVYVDVLKDSGRDYVSQFEGSALGKQLNLKLLDNWDSVTSTFSKLREQLGPVTQEFWDNLEKETEGLRQEMSKDLEEVKAKVQPYLDDFQKKWQEEMELYRQKVEPLRAELQEGARQKLHELQEKLSPLGEEMRDRARAHVDALRTHLAPYSDELRQRLAARLEALKENGGARLAEYHAKATEHLSTLSEKAKPALEDLRQGLLPVLESFKVSFLSALEEYTKKLNTQ
notes: Expressed from the pEF6-V5-His vector in Expi293 cells, secreted and His-purified; also called chimeric protein; artificial recombinant protein
